The conditions of this data set: Saccharomyces cerevisiae (strain ATCC 204508 / S288c), Fluorescence, reversible: yes, whole UniProt chain shown.
[1] abbreviates: pH 4.6, Thermal, Acetic acid-NaOH 30 mM.
Setting [2] is: pH 7.5, 5.2 °C, GdnHCl, MOPS-NaOH 30 mM.
Setting [3] is: pH 7.5, 10.2 °C, GdnHCl, MOPS-NaOH 30 mM.
Setting [4] is: pH 7.5, 15.2 °C, GdnHCl, MOPS-NaOH 30 mM.
The mark [5] stands for this setting: pH 7.5, Thermal, MOPS-NaOH 30 mM.

B1: Adenylate kinase wild type, P07170 (protein)
chain: MSSSESIRMVLIGPPGAGKGTQAPNLQERFHAAHLATGDMLRSQIAKGTQLGLEAKKIMDQGGLVSDDIMVNMIKDELTNNPACKNGFILDGFPRTIPQAEKLDQMLKEQGTPLEKAIELKVDDELLVARITGRLIHPASGRSYHKIFNPPKEDMKDDVTGEALVQRSDDNADALKKRLAAYHAQTEPIVDFYKKTGIWAGVDASQPPATVWADILNKLGKD
In the case of B1, the unfolding free energy reads like this: (pH 4.6, 25 °C, Thermal, Acetic acid-NaOH 30 mM) 2.15 kcal/mol; under setting [2], 3.97 kcal/mol; under setting [3], 4.9 kcal/mol; under setting [4], 5.47 kcal/mol; (pH 7.5, 25 °C, Thermal, MOPS-NaOH 30 mM) 3.82 kcal/mol. For the same protein, the Tm was 48.6 °C under setting [1] and 47.7 °C under setting [5]. In addition, the “unfolding enthalpy (van 't Hoff)” value was 57.4 kcal/mol under setting [1] and 81.3 kcal/mol under setting [5]. For the same protein, the denaturant m value under setting [2] came out at 5.28 kcal/mol/M, the denaturant m value under setting [3] was found to be 6.98 kcal/mol/M and the denaturant m value under setting [4] was found to be 7.29 kcal/mol/M. The “denaturant midpoint (higher = more stable)” value runs as follows: under setting [2], 0.76 M; under setting [3], 0.7 M; under setting [4], 0.75 M.

Values taken from FireProtDB (doi:10.1111/j.1432-1033.1995.tb20713.x).
